Results from patent publication US20140271639A1, “Semaphorin 7a Induced Lung Fibrogenesis Occurs in a CD-4-Dependent, Macrophage Dependent Manner” (YALE UNIVERSITY, priority 2011, published 2014).

Test system: CD14+ monocytes
Experiment: Sema 7a stimulation of CD14+ monocytes; CD206 expression via flow cytometry
Format: cell-based, human
Method: Antibodies against mouse F4/80, CD11b, and CD11c, and against human CD4, CD8, and CD14 were purchased from BD Pharmingen. CD206 antibody was purchased from Serotec. Semaphorin 7a antibody was obtained from R & D Systems. Appropriate isotype controls were obtained from BD Pharmingen. Flow cytometry and cell sorting were performed using a BD FACSCalibur. Data were analyzed using Flow Jo v 7.5 software (Tree Star, Inc, Ashland, Oreg.). For all analyses, isotype control staining was subtracted from true antibody staining to determine the percentage of positive cells. When necessary this percentage was then multiplied by the total cell count in the sample to derive absolute quantity of the cell population of interest.
Ficoll separation and processing of PBMCs for FACS was performed as we have previously described (Gan et al., 2011, Arthritis Rgeum. 63:2484-2494).
CD14+ monocytes were obtained via MACS-enrichment as have been previously described. These cells were stimulated with recombinant Sema 7a (Abnova, Taiwan) or human serum albumin (Sigma) as previously described (Gan et al., 2011, Arthritis Rgeum. 63:2484-2494). Lentivirally-mediated shRNA knockdown of Plexin C1 expression was performed using specific anti-Plexin shRNA or control “scramble” shRNA (Santa Cruz Biotech, Santa Cruz […].) as previously described (Gan et al., 2011, Arthritis Rgeum. 63:2484-2494).

B1: recombinant Sema 7a protein: recombinant Sema 7a (Abnova, Taiwan) used to stimulate CD14+ monocytes (protein, UniProt O75326 45-648, looked up)
Semaphorin-7A: QGHLRSGPRIFAVWKGHVGQDRVDFGQTEPHTVLFHEPGSSSVWVGGRGKVYLFDFPEGKNASVRTVNIGSTKGSCLDKRDCENYITLLERRSEGLLACGTNARHPSCWNLVNGTVVPLGEMRGYAPFSPDENSLVLFEGDEVYSTIRKQEYNGKIPRFRRIRGESELYTSDTVMQNPQFIKATIVHQDQAYDDKIYYFFREDNPDKNPEAPLNVSRVAQLCRGDQGGESSLSVSKWNTFLKAMLVCSDAATNKNFNRLQDVFLLPDPSGQWRDTRVYGVFSNPWNYSAVCVYSLGDIDKVFRTSSLKGYHSSLPNPRPGKCLPDQQPIPTETFQVADRHPEVAQRVEPMGPLKTPLFHSKYHYQKVAVHRMQASHGETFHVLYLTTDRGTIHKVVEPGEQEHSFAFNIMEIQPFRRAAAIQTMSLDAERRKLYVSSQWEVSQVPLDLCEVYGGGCHGCLMSRDPYCGWDQGRCISIYSSERSVLQSINPAEPHKECPNPKPDKAPLQKVSLAPNSRYYLSCPMESRHATYSWRHKENVEQSCEPGHQSPNCILFIENLTAQQYGHYFCEAQEGSYFREAQHWQLLPEDGIMAEHLLGHACALA
- response to Sema 7a stimulation (cell surface expression of CD206) (IPF monocytes, p=0.16, FIGS. 6A and 6B): failed to respond
- increase in cell surface expression of CD206 (normal human monocytes, p=0.04, FIGS. 6A and 6B): 94.3%
